Assay results: the nanobody polyreactivity screen of Harvey et al. (2022)

Experiment: yeast display, Sf9 membrane polyspecificity reagent, FACS + sequencing; frameworks hold sequencing errors
In short: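 Nanobodies from a synthetic yeast display library (Saccharomyces cerevisiae BJ5465), induced 36–48 hours with galactose, were stained 1 hour at 4 °C with 10% biotinylated, detergent-solubilized Sf9 membrane reagent, enriched on streptavidin microbeads, then FACS-sorted. Anti-HA (expression) and streptavidin (reagent binding) fluorescence set low and high (top ~1%) gates. Polyreactivity labels come from the gate of origin. Genes were colony-PCR amplified, MiSeq 2 × 250 sequenced and filtered by CDR length.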

Sequence	polyreactivity (PSR sort gate)
QVQLVESGGGLVQAGGSLRLSCAASGSTFAGNGMGWYRQAPGKERELVAGIDVTGGSTYYADSVKGRFTISRDNAKNTVYLQMNSLKPEDTAVYYCNARYVYHSSFAGFDYWGQGTQVTVSS	low polyreactivity
QVQLVESGGGLVQAGGSLRLSCAASGSTFAGYAMGWYRQAPGKERELVAAISYSGGTTYYADSVKGRFTISRDNAKNTVYLQMNSLKPEDTAVFYCAARKKYKTPSYDMYYWGQGTQVTVSS	high polyreactivity
QVQLVESGGGLVQAGGSLRLSCAASGSTFAGYVMGWYRQAPGKERELVADISGRGGNTYYADSVKGRFTISRDNAKNTVYLQMNRLKPEDTAVYYCASILSRRYGYWGQGTQVTVSS	high polyreactivity
QVQLVESGGGLVQAGGSLRLSCAASGSTFAINAMGWYRQAPGKERELVAAISSSGSTNYADSVKGRFTISRDNAKNTVYLQMNSLKPEVTAVYYCAADRVWGTPQAYVPSQFDYWGQGTQVTVSS	low polyreactivity
QVQLVESGGGLVQAGGSLRLSCAASGSTFAINTMGSYREAPGKERELVAAISWSGGSTYYADSVKGRFTISRDNAKNTVYLQMNSLKPEDTAVYYCAARVPGWYVPGYNVYYWGQGTQVTVSS	high polyreactivity
QVQLVESGGGLVQAGGSLRLSCAASGSTFAIYAMGWYRPAPGKERELVASISGGSTNYADSVKGRFTISRDNAKNTVDLQMNSLKPEDTADYYCAARGALHHWYRYDYWGQGTQVTVSS	low polyreactivity
QVQLVESGGGLVQAGGSLRLSCAASGSTFAIYAMGWYRQAPGKERELVASISGGSTNYADSVKGRFTISRDNAKNTVYLQMNSLKPEDTAVYYCAARGALHHWYRYDYWGQVTQVTVSS	low polyreactivity
QVQLVESGGGLVQAGGSLRLSCAASGSTFAPNAMGWYRQAPGKERELVAAIRTNTGSTYYADSVKGRFTISRDNAKNTVYLQMNSLKPEDTAVYYCAAVFSGFYYAYDYWGQGTQVTVSS	high polyreactivity
QVQLVESGGGLVQAGGSLRLSCAASGSTFAPNTMGWYRQAPGKERELVARITSSDGSTTYADSVKGRFTISRDNAKNTVYLQMNSLKPEDTAVYYCAADYGRRWGYDYWGQGTQVTVSS	low polyreactivity
QVQLVESGGGLVQAGGSLRLSCAASGSTFAPYAMGWYRQAPGKERELVAAIRSSGGSTYYADSVKGRFTISRDNAKNTVYLQMNSLKPEDTAVYYCSDDYYTSADYVDYYYWGQGTQVTVSS	low polyreactivity
QVQLVESGGGLVQAGGSLRLSCAASGSTFAPYAMGWYRQAPGKERELVATISFRGGSTYYADSVKGRFTISRDNEMNTVFLEMNNLKPEDTAVYYCNAQRRYPYGYGYWGQGTQVTVSS	high polyreactivity
QVQLVESGGGLVQAGGSLRLSCAASGSTFAQNAMGWYRQEPGKERELVAAISRRGGSTYYADSVKGRFTISRDNAKNTVYLQMISLKPEDTAVYYCAADQPVRQLHRDDYWGQGTQVTVSS	low polyreactivity
QVQLVESGGGLVQAGGSLRLSCAASGSTFARNAMGWYRQAPGKERELVAAITTRGSSTYYADSVKGRFTISRDNAKNTVYLQMNSLKPEDTAVYYCAARTQAPLGKYGYWGQGTQVTVSS	high polyreactivity
QVQLVESGGGLVQAGGSLRLSCAASGSTFARNTMGWSRQAPGKEREIVAAIDWSGGNTYYADSVKGRFTISRDNAKNTVYLQMNSLKPEDTAVYNCYDYWGQGTQVTVSS	low polyreactivity
QVQLVESGGGLVQAGGSLRLSCAASGSTFARYAMGWYRQAPGKDREFVAVSTSGGSTYYADSVNGRFTISRDNAKNPVYLQMNSLKPEDTAVYYCAAQSYFVFGSYRRYYGYDYWGQGTQVTVSW	high polyreactivity
QVQLVESGGGLVQAGGSLRLSCAASGSTFARYAMGWYRQAPGKERELVAAISANGGITYYADSVKGRFTISRDNAKNTVYLQMNSLKPEDTAVYYCAARKSAYRFYRMNYWGQGTQVTVSS	high polyreactivity
QVQLVESGGGLVQAGGSLRLSCAASGSTFARYAMGWYRQAPGKERELVAAISRRGGSTYYADSVKGRFTISRDNAKNTVYLQINSLKPEDTAVYYCAARYGIITSFEYDYWGQGTQVTVSS	high polyreactivity
QVQLVESGGGLVQAGGSLRLSCAASGSTFARYAMGWYRQAPGKERELVAAITWGGGGTYADSVKGRFTISRDNAKNTVSLQMNSLKPEDTAVYYCNAYGPLILFIGFRLDYWGQGTQVTVSS	low polyreactivity
QVQLVESGGGLVQAGGSLRLSCAASGSTFARYAMVWYRQAPGKERELVAVIRSGGSTNYADSVKGRFTISRDNAKNTVYLQMNSLKPEDTAGAADQWTIHRWATYGYWGQGTQVTVSS	low polyreactivity
QVQLVESGGGLVQAGGSLRLSCAASGSTFARYVMGWYRQAPGKDRELVAAIRSTGGRTYYADSVKGRFTISRDNAKNTVYLQMNSLKPEDTAVYYCAAAFGQYSRKRFDYWGQGTQVTVSS	high polyreactivity
QVQLVESGGGLVQAGGSLRLSCAASGSTFASNAMGWYRQAPGKERELVAAISRSGGTTYYADSVKGRFTISRDNAKNTVYLQMNSLKPEDTAVYYCAVYGYRFYKAVKYYYWGQGTQVTVSS	high polyreactivity
QVQLVESGGGLVQAGGSLRLSCAASGSTFASNAMGWYRQAPGKERELVATINGDGSTNYADSVKGRFTISRDNAKNTVYLQMNSLKPEDTAVYYCNARYDYYGFWYQPYTLEVDYWGQGTQVTVSS	low polyreactivity

Sequence	polyreactivity (PSR sort gate)
QVQLVESGGGLVQAGGSLRLSCAASGSTFASNVMGWYRQAPGKERELVAAISRSGGNTYYADSVKGRFTISRDIAKNTVYLQMNSLKPEDTAVYYCAKYPFTRISYDYWGQGTLVTVSS	high polyreactivity
QVQLVESGGGLVQAGGSLRLSCAASGSTFASNVMGWYRQAPGKERELVAAITRGDRTHYAHSVKGRFTISRDNAKNTVYLQMNSLKPEDPAVYYCAKVTTLGRSRDYWGQGTQVTVSS	low polyreactivity
QVQLVESGGGLVQAGGSLRLSCAASGSTFASYAMGWYRQAPGKETELVASITRRGCSTDYADSVKGRFTISRDNAKNTVDFPMNLLKPEDTAVYYCATYSYPERTGGHRTHYYWGQGTQVTVSS	high polyreactivity
QVQLVESGGGLVQAGGSLRLSCAASGSTFASYAMGWYRQAPGKQRELVAAITDSGGSTYYADSVKGRFTISRDNAKNTVYLQMNSLKPEDTAVSYCAAYGRYFSYHDYDYWGQGTQVTVSS	low polyreactivity
QVQLVESGGGLVQAGGSLRLSCAASGSTFASYVMGGYSQAPGKERELVAGIDVRGVSTYYADSVKGRFTISRDNAKNTVYLQMNSLKPEDTAVYYCAIDNRYEMDYWGQGTQVTVSS	low polyreactivity
QVQLVESGGGLVQAGGSLRLSCAASGSTFAVYAMGWYRQAPGKERELVAVISRGANTNYADSVKGRFTISRDNAKNTVYLQMNSLKPEDTAVYYCAAVDGYDSHDTGEYYYWGQGTQVSVSS	low polyreactivity
QVQLVESGGGLVQAGGSLRLSCAASGSTFAVYTMGWYRQAPGKERELSTSYADSVKGRFTISRDNAKNTVYLQMNSLKPEDTAVYYCAADYDAWYDDIEYDYWGQGTQVTVSS	low polyreactivity
QVQLVESGGGLVQAGGSLRLSCAASGSTFAWYDMGWYRQAPGNEREFVAAIDYGGGSTYADSVKGRFTISRDKEKNTVYLQMNSLKPEDTAVYYCNADNWVYLYDYWGQGTQVTVSS	low polyreactivity
QVQLVESGGGLVQAGGSLRLSCAASGSTFAYAMGCYRQAPGKERELVAAIRTTGGSTYYADSVKGRFTISRDNAKNTVYFQMNSLNPEDSAVYYCAAVWGYGQYGSKYYYKYGYWGQGTQVTVSS	high polyreactivity
QVQLVESGGGLVQAGGSLRLSCAASGSTFAYNAMGWYRQAPGKERELVAAIRISGGTTYYADSVKGRFTISRDNAKNTVYLQMNSLKREDTAVYYCAAGTAGTTGSPKFSGYGYDYWGQGTQVTVSS	low polyreactivity
QVQLVESGGGLVQAGGSLRLSCAASGSTFAYNAMGWYRQAPGKERELVAAISWRGGSTYYADSVKGRFTISRDNAKNTVYLQMNSLKPEDTAVYYCAALYPYKREDYWGQGTQVTVSS	high polyreactivity
QVQLVESGGGLVQAGGSLRLSCAASGSTFAYNAMGWYRQAPGKERELVAVITWSDDRTYYADSVKGRFTISRDNAKNTVYLQMNSLKPEDTSVYYCAADRSGYWHYYTPYDYWGQGTQVTVSS	low polyreactivity
QVQLVESGGGLVQAGGSLRLSCAASGSTFAYNDMGWYRQAPGKERELVADIRSGGNTNYADSVKGRFTISRDNAKNTVYLQMNSLKPEDTAFYYCNVKYFVVAGYRYVKFDYWGQGTQVTVSS	low polyreactivity
QVQLVESGGGLVQAGGSLRLSCAASGSTFAYNVMGWYRQAPGKERELVAAITISGTSTYYADSVKGRFTISRDNAKNTVYLQMNSLKPEDTAVYYCAARRDRGRVKFYYWGQGTQVTVSS	high polyreactivity
QVQLVESGGGLVQAGGSLRLSCAASGSTFAYYAMGWYRQAPGKERELVAAISWRGGSTYYADSVKGRFTISRDNAKNTVYLLMNILKPEVTAVYYCAAARDRWGNYWGQGTQVTVSS	high polyreactivity
QVQLVESGGGLVQAGGSLRLSCAASGSTFAYYAMGWYRQAPGKERELVAAITSSGGSTYYADSVKGRFTISRDKAKNTVYLQMNSLKPEDTAVYYCNARYRRKSWRPFDYWGQGTQVTVSS	high polyreactivity
QVQLVESGGGLVQAGGSLRLSCAASGSTFAYYVMGWYRQAPGKERELVAAISRGGRTYYADSVKGRFTISRDNAKNTVYLQMNSLKPEDTAVSYCAKPYHQRSAKVDYWGQGTQVTVSS	low polyreactivity
QVQLVESGGGLVQAGGSLRLSCAASGSTFAYYVMGWYRQAPGKERELVAAITSSGGRTYYADSVKGRFTISRDNAKNTVYLQMNSLKPEDTAVYYCAKVSQRRVDNSDYDYWGQGTQVTVSS	high polyreactivity
QVQLVESGGGLVQAGGSLRLSCAASGSTFCGYAMGWYRQAPGKERELVAAITNGGSTYADSVKGRFTISRDNAKNTVYLQMNSLKPEDTAVYYCNTETGPSPVPVYDTEVDSWGQRTQVTVSS	low polyreactivity
QVQLVESGGGLVQAGGSLRLSCAASGSTFCYSVMGWYRQEPRTEREFVAAISTRGDSTYYADSVKGRFTLSRDNAKNTVYLQMNSLKPEDTAVYYCAKSRQSCGRVRLDYWGQGTQVTVSS	low polyreactivity
QVQLVESGGGLVQAGGSLRLSCAASGSTFDANTMGWYRQAPGKERELVAAISSNGGRTYYADSVKGRFTISRDNAKNTVYLQMNSLKPEDTAVYYCAATSYYRYRETYDYWGQGTQVTVSS	high polyreactivity
